One may read the Kd as a measure of binding affinity in units of concentration. The low end stands for tighter binding, the high end for weaker binding.

The values that follow come from article PMC2665239 (Nucleic Acids Research, 2009).

Read-outs that look alike come from different tables or passages of the source.

The target in series [1] is T1, ttPOLXc domain (Thermus thermophilus HB8, UniProt Q5SJ64 1-379).
T1 sequence: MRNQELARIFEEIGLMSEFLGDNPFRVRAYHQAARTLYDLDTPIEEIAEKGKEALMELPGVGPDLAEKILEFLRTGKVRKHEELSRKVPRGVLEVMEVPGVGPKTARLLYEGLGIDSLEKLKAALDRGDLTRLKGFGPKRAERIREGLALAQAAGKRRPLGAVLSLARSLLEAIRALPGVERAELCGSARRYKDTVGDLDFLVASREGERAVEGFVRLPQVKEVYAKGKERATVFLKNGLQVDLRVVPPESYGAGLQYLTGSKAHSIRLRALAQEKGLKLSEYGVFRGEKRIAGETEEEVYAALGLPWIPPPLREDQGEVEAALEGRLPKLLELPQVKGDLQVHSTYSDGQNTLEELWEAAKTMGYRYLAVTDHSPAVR
Kind of series: EMSA. For orientation: Mobility shift assays separate free from complexed probe on a gel.

Series [2] concerns the target T2, ttPolX (Thermus thermophilus HB8, UniProt Q5SJ64 1-575).
T2 sequence: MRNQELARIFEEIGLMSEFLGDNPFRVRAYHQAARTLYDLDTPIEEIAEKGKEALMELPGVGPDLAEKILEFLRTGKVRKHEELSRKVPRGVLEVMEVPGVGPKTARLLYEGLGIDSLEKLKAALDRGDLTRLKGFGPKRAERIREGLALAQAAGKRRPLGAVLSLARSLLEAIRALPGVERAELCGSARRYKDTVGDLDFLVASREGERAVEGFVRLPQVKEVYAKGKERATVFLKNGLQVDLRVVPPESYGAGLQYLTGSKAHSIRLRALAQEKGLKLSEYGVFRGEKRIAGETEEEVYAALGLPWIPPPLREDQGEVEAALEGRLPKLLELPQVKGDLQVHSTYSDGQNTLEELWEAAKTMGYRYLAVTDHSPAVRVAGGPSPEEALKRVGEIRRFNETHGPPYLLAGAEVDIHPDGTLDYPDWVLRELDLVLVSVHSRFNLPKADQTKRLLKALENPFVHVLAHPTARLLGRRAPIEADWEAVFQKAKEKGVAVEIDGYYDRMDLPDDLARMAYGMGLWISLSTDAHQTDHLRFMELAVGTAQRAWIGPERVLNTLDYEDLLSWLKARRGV
In words: EMSA.

A further series deals with T3, ttPHP domain (Thermus thermophilus HB8, UniProt Q5SJ64 339-575).
T3 sequence: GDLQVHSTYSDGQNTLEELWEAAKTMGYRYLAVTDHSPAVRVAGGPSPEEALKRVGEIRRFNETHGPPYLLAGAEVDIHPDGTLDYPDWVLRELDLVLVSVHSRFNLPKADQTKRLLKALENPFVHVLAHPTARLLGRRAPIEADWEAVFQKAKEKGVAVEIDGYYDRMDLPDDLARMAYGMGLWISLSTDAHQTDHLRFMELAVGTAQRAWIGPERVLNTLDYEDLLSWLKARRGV
Kind of series: EMSA.

For series [3], the target named is T1, ttPOLXc domain. Kind of series: EMSA. This is another data set of the same source.
Series [4] has as its target T2, ttPolX. Kind of series: EMSA. This is another data set of the same source.
The target of series [5] is T2, ttPolX. Kind of series: EMSA. The source holds these as a separate data set.
For series [6], the target named is T1, ttPOLXc domain. In words: EMSA. The source holds these as a separate data set.
For series [7], the target named is T2, ttPolX. In words: EMSA. This is another data set of the same source.
Series [8] concerns the target T1, ttPOLXc domain. Kind of series: EMSA. The source holds these as a separate data set.
In series [9] the target is T4, His-tagged ttPOLXc domain (N-terminal domain of ttPolX, residues 1-379) (Thermus thermophilus HB8, UniProt Q5SJ64 1-379).
T4 sequence (looked up): T1 sequence
Kind of series: SEC. A general note: Size exclusion chromatography separates by hydrodynamic size, large species first.

In the case of CACTGGCGGTCGTTCTATCGGGTGTTGCTTTAGTTGTCAT (ssDNA) [40T ssDNA], the dissociation constant (Kd) with ttPOLXc domain [1] turned out to be 5.5 ± 1.7 µM; with ttPolX [2], 1.2 ± 0.7 µM. The binding result in the series with ttPHP domain is “no binding”.

B1: 40T/40C dsDNA (dsDNA)
DNA 1: CACTGGCGGTCGTTCTATCGGGTGTTGCTTTAGTTGTCAT
DNA 2: ATGACAACTAAAGCAACACCCGATAGAACGACCGCCAGTG
As for B1, the results for the Kd with ttPOLXc domain [3] and in the series with ttPolX [4] were 9.3 ± 3.8 µM and 1.2 ± 0.7 µM, respectively. Besides, the binding result in the series with ttPHP domain is given as “no binding”.

B2: 21F/40T/18G 1-nt gapped DNA (dsDNA)
DNA 1: B1 DNA 1
DNA 2: ATGACAACTAAAGCAACACCC
DNA 3: ATAGAACGACCGCCAGTG
Regarding B2, the Kd in the series with ttPolX [5] amounted to 0.39 ± 0.15 µM; in the series with ttPOLXc domain [6] it was 6.5 ± 2.5 µM. In addition, the binding result with ttPHP domain was “no binding”.

B3: 21F/40T/P18G 5'-phosphorylated 1-nt gapped DNA (dsDNA)
DNA 1: B1 DNA 1
DNA 2: ATGACAACTAAAGCAACACCC
DNA 3: ATAGAACGACCGCCAGTG
modifications: 5'-phosphate on 18G (P18G)
On to B3, for which the Kd in the series with ttPolX [7] turned out to be 0.3 ± 0.18 µM; with ttPOLXc domain [8] it was 4.8 ± 2.5 µM. For the same molecule, in the series with ttPHP domain, the binding result is reported as “no binding”.

B4: His-tagged ttPHP domain (C-terminal domain of ttPolX, residues 339-575) (domain or fragment, Thermus thermophilus HB8, UniProt Q5SJ64 339-575, looked up)
chain: T3 sequence
For the molecule B4, in [9], the “stoichiometry N” value is 1 ttPOLXc:ttPHP molar ratio.
